The subject of the assay is splenocytes from immunized mice. The experiment in a line: IFN‐γ production by splenocytes of immunized mice after in vitro re-stimulation (ELISA). Conditions: spleen cells from vaccinated mice (NPs plus OVA, or OVA only), OVA stimulation 48 h in vitro. Format: in vivo, C57BL/6 mice. The protocol:
To further investigate the activation ability of mannosylated nanoparticles, the spleen cells from mice that vaccinated for 4 weeks with mannosylated NPs plus OVA (group 1) and OVA only (group 4) were stimulated by OVA for 48 h in vitro. The expression levels of IFN‐γ in cell media with or without OVA stimulation was measured by ELISA (Figure 6c).
After immunization, the spleens of the immunized mice were removed under sterile conditions and suspended in sterile cold PBS. After centrifugation, the cell suspension was diluted to 2 × 10^6 cells mL^−1 in RPMI 1640 supplemented with 10% FBS, 100 µg mL^−1 streptomycin and 100 unit mL^−1 penicillin, and cultured overnight. After removal of the non‐adherent cells, the medium was changed, and the OVA protein in buffer and PBS buffer only were added to different wells, respectively, and cultured for 48 h. The culture media was then collected and diluted for the ELISA tests. Following the instructions of ELISA kit, the samples, anti‐IFN‐γ antibody, and chromogenic substrates were added in order. The corresponding OD450 was measured by Multiskan GO (Thermo Scientific) microplate reader.
A general note: ELISA stands for enzyme-linked immunosorbent assay.

One molecule from publication PMC7435236, “Self‐Assembling Glycopeptide Conjugate as a Versatile Platform for Mimicking Complex Polysaccharides” (Advanced Science, 2020) can be followed below.

B1: OVA: Ovalbumin, model antigen for evaluation of vaccine adjuvants (protein, UniProt P01012 2-386, looked up)
Ovalbumin: GSIGAASMEFCFDVFKELKVHHANENIFYCPIAIMSALAMVYLGAKDSTRTQINKVVRFDKLPGFGDSIEAQCGTSVNVHSSLRDILNQITKPNDVYSFSLASRLYAEERYPILPEYLQCVKELYRGGLEPINFQTAADQARELINSWVESQTNGIIRNVLQPSSVDSQTAMVLVNAIVFKGLWEKAFKDEDTQAMPFRVTEQESKPVQMMYQIGLFRVASMASEKMKILELPFASGTMSMLVLLPDEVSGLEQLESIINFEKLTEWTSSNVMEERKIKVYLPRMKMEEKYNLTSVLMAMGITDVFSSSANLSGISSAESLKISQAVHAAHAEINEAGREVVGSAEAGVDAASVSEEFRADHPFLFCIKHIATNAVLFFGRCVSP
B1: the “IFN‐γ expression in cell media” value is on record as “Upregulation of IFN‐γ”.
